Data: patent US20250082755A1

Biological target: CD123 expressed on MOLM13 AML cells (UniProt P26951)
Assay: cell-based or functional assay

Sequence of UniProt P26951 (P26951 19-378 limits assumed): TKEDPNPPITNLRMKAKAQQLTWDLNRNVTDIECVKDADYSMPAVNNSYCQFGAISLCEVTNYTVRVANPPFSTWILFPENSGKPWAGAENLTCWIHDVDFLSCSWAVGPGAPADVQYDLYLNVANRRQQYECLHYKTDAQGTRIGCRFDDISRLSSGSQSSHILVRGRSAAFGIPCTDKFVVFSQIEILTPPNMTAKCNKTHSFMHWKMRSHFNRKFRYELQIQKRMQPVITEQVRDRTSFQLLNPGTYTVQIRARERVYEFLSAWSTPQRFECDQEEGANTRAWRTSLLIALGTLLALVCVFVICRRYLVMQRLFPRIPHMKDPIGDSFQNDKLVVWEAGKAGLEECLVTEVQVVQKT

| CD69 activation, Average MOLM13-WT fold change over MOLM-CD123KO [fold] | CD69 activation, MOLM13 fold change over MOLM-CD123KO, Replicate 1 [fold] | CD69 activation, MOLM13 fold change over MOLM-CD123KO, Replicate 2 [fold] | TIB153 % CD69 activation: MOLM-13-WT/MOLM-13 CD123KO | Substance |
| --- | --- | --- | --- | --- |
| 3.84 | 4.74 | 2.94 | 4.74 | IL3-WT-41BBcostim (SEQ ID NO: 25) (receptor) |
| – | – | – | 1.06 | IL3-K110E-nocostim (SEQ ID NO: 27) (receptor) |
| – | – | – | 1.03 | IL3-K110E-CD28costim (SEQ ID NO: 29) (receptor) |
| – | – | – | 1.28 | IL3-K110E-41BBcostim (receptor) |
